B1: HDV Ribozyme (parent)
chain: GGCCGGCAUGGUCCCAGCCUCCUCGCUGGCGCCGGCUGGGCAACAUUCCGAGGGGACCGUCCCCUCGGUAAUGGCGAAUGGGACCCA

Variants of: B1
Test: self-cleavage, relative activity (ratio to wild type); higher = more cleavage; co-transcriptional

Variant | self-cleavage
C13U G31A | 0.131
C13U G31C | 0.198
C13G C66A | 0.0339
C13A G82A | 0.264
C13A G82C | 0.17
C13G G73C | 0.0396
C13G G73U | 0.0361
C13G G73A | 0.0665
C13U G59A | 0.763
C13U C21A | 0.192
C13U C21G | 0.115
C13U G76U | 0.813
C13U C85U | 0.332
C13U C85A | 0.475
C13U C85G | 0.332
C13U C63G | 0.233
C13U C63U | 0.696
C13G C61A | 0.148
C13G C63A | 0.0906
C13U C26U | 1.07
C13U C26A | 1.23
C13U C26G | 0.831
C13G G40U | 0.104
C13G G40A | 0.119

Variant | self-cleavage
C13G G29U | 0.0415
C13G G29A | 0.0573
C13G A77G | 0.199
C13G A77C | 0.0615
C13G U37G | 0
C13U A77U | 0.155
C13U A77G | 0.399
C14A | 0.761
C13U G74C | 0.0627
C13U C64A | 0.807
C13U C64G | 0.567
C13A U47A | 0.148
C13A U47C | 0.277
C13A U47G | 0.138
C13U A45G | 0.465
C13A G34C | 0.151
C13A G34A | 0.131
C13A G34U | 0
C13U G29U | 0.0707
C13G G35A | 0.0449
C13G G35C | 0.0536
C13G G35U | 0.0504
C13U A16G | 0.978
C13U C49U | 0.256

Variant | self-cleavage
C13U C49G | 0.426
C13G C86G | 0.0978
C13G C86A | 0.0811
C13A C48A | 0
C13A C48G | 0.138
C14A A87G | 0.659
C13A G54C | 0.283
C13A G54A | 0.117
C14A A83U | 0.499
C14A A83C | 0.0755
C13U U46C | 0.138
C13U U46A | 0.219
C13G U47G | 0.151
C13G U47C | 0
C13G U47A | 0
C13A U60C | 0.0573
C13A U60G | 0.136
C13A U60A | 0.214
C13G A42C | 0
C13G A42G | 0.178
C14A A70U | 0.344
C14A A70G | 0.665
C13U U72C | 0.252
C13U U72A | 0.128

Variant | self-cleavage
C13U U72G | 0.266
C13G U79G | 0.0755
C13G U79A | 0
C13U C33G | 0.252
C13U C33U | 0.397
C14A A71U | 0.852
C14A A71G | 0.499
C13A G59A | 0.166
C13A G59U | 0.356
C13U U23A | 0.571
C13U G52C | 0.639
C13G G55U | 0.0583
C13G G55C | 0.135
C13U C36U | 0.256
C13U U60G | 0.831
C13U U60C | 0.831
C13A G80A | 0.106
C13A G80C | 0.125
C13A G29A | 0.0268
C13U A87U | 0.819
C13U A87G | 0.634
C13U A87C | 0.647
C13G C22U | 0
C13U C15U | 0.733

Variant | self-cleavage
C13U C15G | 0.356
C13U A70C | 0.453
C13U A70U | 0.342
C13G G50C | 0.0594
C13G G50A | 0.131
C13A C63U | 0.0627
C13G G38U | 0.0292
C13G G38A | 0.0302
C13U U37A | 0.0308
C13U U37C | 0.369
C13U U37G | 0.138
C13G C49A | 0.123
C13A G74U | 0.0443
C13A C84A | 0.831
C13A C84U | 0.227
C13A C64G | 0.19
C13A C64U | 0.242
C13U C14U | 0.308
C13A C85G | 0.0396
C13A C85U | 0.141
C13A G25A | 0.0277
C13A G25C | 0.0773
C14A A16C | 0.755
C13U G54A | 0.739

Variant | self-cleavage
C14A A45U | 0.467
C13A G68C | 0.151
C13A G68A | 0.187
C13U C66U | 0.698
C13U C66G | 0.589
C13G A70G | 0.229
C13G A70C | 0
C13G G68A | 0
C13G A83G | 0.0361
C13G A83U | 0
C13U G73U | 0.0875
C13U G73A | 0.128
C13U C24G | 0.0615
C13U C24A | 0.381
C13A C66G | 0.378
C13A C66A | 0.125
C13A C66U | 0.125
C13A U20C | 0.0405
C13U C61G | 0.684
C13A G55U | 0.0707
C13A G55C | 0.143
C13A G55A | 0.222
C13G G28U | 0
C13U A83C | 0.344

Variant | self-cleavage
C13U A56G | 0.573
C13U A56U | 0.554
C13G G34C | 0.178
C13G G34A | 0.0536
C13A U65A | 0.348
C13A U27A | 0.831
C13U U79A | 0.256
C13G G31A | 0.0923
C13G G31C | 0
C13A G28C | 0.111
C13U G55A | 0.702
C13G C15A | 0.128
C13G C15U | 0
C13G U69C | 0.111
C13G C18A | 0.0831
C13A G38C | 0.106
C13A G38A | 0.0631
C13A G38U | 0.0536
C14A A77G | 0.755
C13U C75G | 0.0723
C13G C64A | 0.0396
C13G C64U | 0.0268
C13G C33U | 0.0475

From the RNAGym collection of RNA variant scans (doi:10.7554/elife.80360)
